In article PMC5628019 one finds incorporation compared to probe B-1 data, which are given here for one substance.

In the experiment the target is MTTR (recombinant monomeric version of TTR), as non-native oligomers (human) (UniProt P02766).

Regarding “VAVHVF (truncated probe B-1, minimal binding competent sequence) (peptide)”, the incorporation compared to probe B-1 turned out to be 90 % less.
